Experiments:
[1] = system: patients with R/R NHL; details: human, in vivo; cited from earlier work
[2] = system: patients with relapsed or refractory follicular lymphoma (R/R FL); assay: Phase Ib/II study, FL dose-escalation phase: safety (adverse events, DLTs, RP2D) of G+Pola+V; type: in vivo; details: in combination with venetoclax 800 mg and obinutuzumab 1000 mg
From the text: This Example describes a Phase Ib/II study evaluating the safety and efficacy of obinutuzumab (G) in combination with polatuzumab vedotin (Pola) and venetoclax (V) in patients with relapsed or refractory follicular lymphoma (R/R FL) and rituximab (R) in combination with polatuzumab vedotin and venetoclax in patients with relapsed or refractory diffuse large B-cell lymphoma (R/R DLBCL).
This Phase Ib/II, open-label, multicenter, non-randomized study evaluated the safety, efficacy, and pharmacokinetics of obinutuzumab (G)+Polatuzumab vedotin (Pola)+venetoclax (V) in patients with R/R FL and rituximab (R)+Pola+V in patients with R/R DLBCL.
This dose-escalation phase included FL patients only.
All patients enrolled in the dose-escalation phase received induction treatment, administered in 21-day cycles as shown in Table 1. […]
The observation period was based on evaluation of dose-limiting toxicities (DLTs) in cycle 1. […] If no additional DLTs were reported, the next dose could be evaluated. […]
Adverse events are assessed according to the adverse event severity grading scale for the NCI CTCAE (v4.0). […]
Laboratory assessments and adverse events (AEs) were assessed throughout the study, with complete blood counts performed on days 1, 8, and 15 of cycle 1, on day 1 of cycles 2-6, and monthly during maintenance treatment. […]

| Substance | Incidence of Grade 3-4 neutropenia [1] [%] | Recommended Phase II dose (RP2D) [2] [mg/kg] |
| --- | --- | --- |
| obinutuzumab | 5 | – |
| polatuzumab vedotin: anti-CD79b immunoconjugate, CAS Registry Number 1313206-42-6; humanized antibody conjugated to MMAE via mc-val-cit-PABC linker | – | 1.8 |
